No end group written: not given here.
Molecular target: hPD-L1 of the Cis-Bio HTRF assay kit (human, UniProt Q9NZQ7 19-238)
Assay: AlphaScreen or HTRF; Cis-Bio kit, 5 nM hPD-L1 and 50 nM hPD-1, 20 µL, dilution series of the inhibitor up to 5 mM, 2 h at room temperature, duplicates, normalized Hill fit
Settings: both partners purified

B1: AUNP-12 peptide (peptide)
chain 1: SNTSESFKFRVTQLAPKAQIKE
chain 2: SNTSESF
modifications: also: bond at chain A 8 at chain B 7 to a chain's C-terminus via isopeptide
IC50: > 10 mM

Reference: paper PMC6695792 (Molecules, 2019)
